Measurements from US20110311550A1 (Scripps Research, published 2011).

Assays:
[1] = target: T1, HCV E1E2 complex, isolate H77 (genotype 1a) (hepatitis C virus genotype 1a, isolate …, UniProt P27958 192-383; P27958 384-746); assay: Fab ELISA on unmasked E1E2
[2] = target: T1, HCV E1E2 complex, isolate H77 (genotype …); assay: apparent affinity: half-maximal binding, ELISA on lectin-captured E1E2
[3] = target: HCV E1E2 complex, isolate HCV-1 (genotype 1a), vaccinia-expressed (hepatitis C virus genotype 1a, isolate …, UniProt P26664 192-383; P26664 384-746); assay: as above
[4] = target: T2, HCV E1E2 complex, isolate H77 (genotype 1a) (hepatitis C virus genotype 1a, isolate …, UniProt P27958 192-383; P27958 384-746); assay: competition ELISA on lectin-captured H77 E1E2; competitor: Fab Q2
T2 construct: also called E1E2 (H77); Folded E1E2

[5] = target: T2, HCV E1E2 complex, isolate H77 (genotype …); assay: competition ELISA on lectin-captured H77 E1E2; competitor: Fab S1
[6] = target: T2, HCV E1E2 complex, isolate H77 (genotype …); assay: competition ELISA on lectin-captured H77 E1E2; competitor: Fab U1
[7] = target: T2, HCV E1E2 complex, isolate H77 (genotype …); assay: competition ELISA on lectin-captured H77 E1E2; competitor: Fab V1
[8] = target: T2, HCV E1E2 complex, isolate H77 (genotype …); assay: competition ELISA on lectin-captured H77 E1E2; competitor: Fab T1
[9] = target: T2, HCV E1E2 complex, isolate H77 (genotype …); assay: competition ELISA on lectin-captured H77 E1E2; competitor: Fab R1
[10] = target: T2, HCV E1E2 complex, isolate H77 (genotype …); assay: competition ELISA on lectin-captured H77 E1E2; competitor: Fab P5
[11] = target: T2, HCV E1E2 complex, isolate H77 (genotype …); assay: competition ELISA on lectin-captured H77 E1E2; competitor: Fab P6
[12] = target: T2, HCV E1E2 complex, isolate H77 (genotype …); assay: competition ELISA on lectin-captured H77 E1E2; competitor: Fab Q1
[13] = target: T1, HCV E1E2 complex, isolate H77 (genotype …); assay: Fab screen after panning on antibody-masked E1E2 (H77)
[14] = target: E1E2 (Env) of HCV isolate UKN2B1.1 (genotype 2b) on HCVpp (hepatitis C virus, isolate UKN2B1.1); assay: cell-based or functional assay
[15] = target: E1E2 (Env) of HCV isolate UKN5.15.7 (genotype 5) on HCVpp (hepatitis C virus, isolate UKN5.15.7); assay: cell-based or functional assay
[16] = target: E1E2 (Env) of HCV isolate UKN4.21.16 (genotype 4) on HCVpp (hepatitis C virus, isolate UKN4.21.16); assay: cell-based or functional assay
[17] = target: E1E2 (Env) of HCV isolate J6 (genotype 2a) on HCVpp (hepatitis C virus, isolate J6, UniProt P26660 192-383; P26660 384-750); assay: cell-based or functional assay
[18] = target: E1E2 (Env) of HCV isolate UKN1B12.16 (genotype 1b) on HCVpp (hepatitis C virus, isolate UKN1B12.16); assay: cell-based or functional assay
[19] = target: E1E2 (Env) of HCV isolate UKN2A1.2 (genotype 2a) on HCVpp (hepatitis C virus, isolate UKN2A1.2); assay: cell-based or functional assay
[20] = target: E1E2 (Env) of HCV isolate H (genotype 1a) on HCVpp (hepatitis C virus, isolate H); assay: cell-based or functional assay
[21] = target: E1E2 (Env) of HCV isolate OH8 (genotype 1b) on HCVpp (hepatitis C virus, isolate OH8); assay: cell-based or functional assay
[22] = target: VSV (control pseudotype virus envelope); assay: cell-based or functional assay

B1: Fab P3 (Fab, V domains shown)
VH: EVQLLESGGGVVQPGKSLRLSCAVSGFTLNTFAMHWVRQVPGKGLEWVALTSHDGSRQDYADSVRGRFTISRDNSKSMVFLLMNSLRAEDTAVYYCVRGGPAYYTYNDVLTGYAYVVGDFWGQGTLVTVSS
VL: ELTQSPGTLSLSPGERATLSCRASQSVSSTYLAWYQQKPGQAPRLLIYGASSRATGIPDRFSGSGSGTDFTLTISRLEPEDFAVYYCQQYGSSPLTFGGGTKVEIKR
binding result [1]: binds

B2: Fab S1 (Fab, V domains shown)
VH: VQLLEQSGAEVKKPGTSVKVSCTASGYIFTSFGISWVRQAPGQGLEWMGRIDTYNGKTNYAQKLQGRVTMTTDTYTSTAYMELRSLTSDDTAVYYCARDDCRSSTCYLAQHNWQAYYHDSWGQGTLVTVSS
VL: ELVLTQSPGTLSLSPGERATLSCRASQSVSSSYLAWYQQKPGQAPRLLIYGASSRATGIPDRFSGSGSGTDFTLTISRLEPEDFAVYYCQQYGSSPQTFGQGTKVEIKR
binding result [1]: binds

B3: MAb AR2A (IgG1 from Fab G) (antibody, V domains shown)
VH: LEQSGAEMKKPGASLKVSCKTSGYTFDDYGVTWVRQAPGQGLEWMGWISAYSGNTFYARKFQGRVTMTTDPSTRTAYMELRSLRSDDTAVYFCARDRGLAINGVVFPYFGLDVWGQGTTVTVSS
VL: ELTQSPVSLPVTPGEPASISCRSSQSLLHSNGNHYLDWYLQKPGQSPQLLMYLGSNRASGVPDRFSGSGSGTDFTLKISRVEAEDVGVYYCMQGLQTPWTFGQGTKVEIKR
notes: also called G IgG
EC50 [2]: 1.6 nM
EC50 [3]: 3.1 nM

B4: MAb AR2A (antibody, V domains shown)
VH: B3 VH
VL: B3 VL
notes: also called IgG1 of Fab G
residual binding [4]: 72%
residual binding [5]: 79%
residual binding [6]: 132%
residual binding [7]: 79%
residual binding [8]: 93%
residual binding [9]: 75%
residual binding [10]: 73%
residual binding [11]: 76%
residual binding [12]: 75%

B5: Fab P1 (Fab, V domains shown)
VH: EVQLLESGGGVVQPGGSLRLSCAASGFTFTSFTMHWVRQAPGKGLEWVALISHDGSNKDYADSVRGRFTVSRDNSKKMVYLQMSSLRPDDAAVYYCARGGPAYYTYSDTLTGYHNVVGDYWGQGTLVTVSS
VL: ELTQSPGTLSLSPGERATLSCRASQVRGFLAWFQQKPGQAPRLLIYGASNRAPGIPDRFSGSGSGTDFTLTISRLEPEDFAVYYCQQYGDSPPITFGQGTRLEIKR
notes: Soluble Fab
binding result [1]: binds

B6: Fab P1a (Fab, V domains shown)
VH: B5 VH
VL: ELTQSPGTLSLSPGERATLSCRTSQSVSSTYLAWYQQKPGQPPRLLIYGASNRAPGIPDRFSGSGSGTDFTLTISRLEPEDFAVYYCQQYGDSPPITFGQGTRLDIKR
binding result [1]: binds

B7: MAb AR1A (antibody, V domains shown)
VH: LEQSGAEVKKPGSSVKVSCRASGSPYSSYTITWVRQAPGQGLEWMGGIILMTGKANYAQKFQGRVTITADRATATAYMEMSSLTSDDTAIYYCARDPYVYAGDDVRSLSRWGQGTPVIVSS
VL: not shown
notes: also called IgG1 of Fab B2
residual binding [4]: 78%
residual binding [5]: 69%
residual binding [6]: 55%
residual binding [7]: 58%
residual binding [8]: 80%
residual binding [9]: 100%
residual binding [10]: 87%
residual binding [11]: 82%
residual binding [12]: 79%

B8: Fab B7 (Fab, V domains shown)
VH: VQLLEQSGAEVKKPGSSVKVSCRASGSPYSSYTITWVRQAPGQGLEWMGGIILMTGKANYAQKFQGRVTITADRATATAYMEMSSLTSDDTAIYYCARDPYVYAGDDVWSLSRWGQGTPVIVSS
VL: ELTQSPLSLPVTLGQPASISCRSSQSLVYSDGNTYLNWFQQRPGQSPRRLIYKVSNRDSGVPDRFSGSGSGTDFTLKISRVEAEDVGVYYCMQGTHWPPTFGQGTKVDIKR
binding result [13]: binds

B9: MAb AR1B (IgG1 from Fab D1) (antibody, V domains shown)
VH: LESGGGLVQPGGSLRLSCEASGYYFSSFAMSWVRQTPGKGLEWVSSIAGGTLGRTSYRDSVKGRFTISRDNSKNTVFLHMNNLRPEDTAVYYCAKDPLLFAGGPNWFDHWGQGTLVTVSS
VL: not shown
EC50 [2]: 0.6 nM
EC50 [3]: 0.4 nM

B10: MAb AR1B (antibody, V domains shown)
VH: B9 VH
VL: not shown
notes: also called IgG1 of Fab D1
residual binding [4]: 96%
residual binding [5]: 101%
residual binding [6]: 103%
residual binding [7]: 102%
residual binding [8]: 102%
residual binding [9]: 101%
residual binding [10]: 95%
residual binding [11]: 95%
residual binding [12]: 97%

B11: MAb AR3C (antibody, V domains shown)
VH: LEQSGAEVKKPGSSVKVSCETSGGTLDNYALNWVRQAPGQGLEWIGGVVPLFGTTRNAQKFQGRVTISDDKSTGTGHMELRSLRSEDTAVYYCVRSVTPRYCGGGFCYGEFDYWGQGTLVTVSS
VL: ELTQSPATLSVSPGERATLSCRASQSVSSNLAWYQQKPGQAPRLLIYGASTRATGIPARFSGSGSGTEFTLTVSRLEPEDSAVYFCQQYYRSPLTFGGGTKVEIKR
notes: also called IgG1 of Fab H3
residual binding [4]: 75%
residual binding [5]: 149%
residual binding [7]: 82%
residual binding [8]: 105%
residual binding [9]: 163%
residual binding [10]: 117%
residual binding [11]: 103%
residual binding [12]: 97%

B12: Fab T1 (Fab, V domains shown)
VH: EVQLLESGGGLVQPGGSLRLSCAASGFTFSRFWMHWVRQAPGKGLVWVARINSDGSSTTYADSVKGRFTISRDNAKNTLYLQMNSLRDEDTAVYFCARGGDSSSPYYYPMDVWGQGTTVAVSS
VL: not shown
binding result [1]: binds

B13: MAb AR3B (antibody, V domains shown)
VH: LEQSGPEVKKPGSSVKVSCKDSGDTFNEPVTWVRQAPGQGLEWIGGIIPAFGVTKYAQKFQGRVIISADASTATAYLELSSLRSEDTAVYYCAKVGLRGIVMVGGLAMNWLDPWGQGTQVTVSS
VL: not shown
Neutralizing activity (IC50) on HCVpp [14]: 10 µg/mL
Neutralizing activity (IC50) on HCVpp [15]: 1 µg/mL
Neutralizing activity (IC50) on HCVpp [16]: 1 µg/mL
Neutralizing activity (IC50) on HCVpp [17]: 10 µg/mL
Neutralizing activity (IC50) on HCVpp [18]: 1 µg/mL
Neutralizing activity (IC50) on HCVpp [19]: 5 µg/mL
Neutralizing activity (IC50) on HCVpp [20]: 1 µg/mL
Neutralizing activity (IC50) on HCVpp [21]: 5 µg/mL
Neutralizing activity (IC50) on control pseudotype virus [22]: > 50 µg/mL

B14: Fab U1 (Fab, V domains shown)
VH: VQLLEQSGPEVKRPGTSVKMSCKISGGASITQAMSWVRQAPGQGLEWMGGITPIFGTVNYAQKILGRVTITADEDTVSLELSSLKSEDTAVYYCAREVNLKTWNLAHPNVFDVWGQGTMLTVSS
VL: ELTQSPSSLSASVGDRVTITCRASQSISSFLNWYQQKPGKAPKLLIYAASSLQSGVPPRFSGSGSGTDFTLTISSLQPEDFATYYCQQSYSTPRTFGQGTKLEIKR
binding result [1]: binds
